According to US20150086555A1:

Assays:
Conditions in all cases: remark: other sources report otherwise
[1] = target: T1, recombinant soluble homotrimeric HA of A/Vietnam/1203/04 (H5N1) (Influenza A virus A/VietNam/1203/2004(H5N1)); assay: trimeric HA microarray, transfection supernatant set 5
[2] = target: recombinant soluble homotrimeric HA of A/swine/Ontario/01911-2/99 (H4N6) (Influenza A virus A/Swine/Ontario/01911-2/99 (H4N6)); assay: as above
[3] = target: T2, recombinant soluble homotrimeric HA of A/Japan/305/57 (H2N2) (Influenza A virus A/Japan/305/1957(H2N2)); assay: as above
[4] = target: T3, recombinant soluble homotrimeric HA of A/chicken/Vietnam/NCVD-016/08 (H5N1) (Influenza A virus A/chicken/Vietnam/NCVD-016/2008(H5N1)); assay: as above
[5] = target: recombinant soluble homotrimeric HA of A/duck/Yangzhou/02/05 (H8N4) (Influenza A virus A/duck/Yangzhou/02/2005(H8N4)); assay: as above
[6] = target: recombinant soluble homotrimeric HA of A/South Carolina/1/18 (H1N1) (Influenza A virus A/South Carolina/1/18 (H1N1)); assay: as above
[7] = target: T4, recombinant soluble homotrimeric HA of A/Wisconsin/67/05 (H3N2) (Influenza A virus A/Wisconsin/67/2005(H3N2)); assay: as above
[8] = target: recombinant homotrimeric HA A/Hong Kong/2108/03 H9N2 (Influenza A virus A/HK/2108/2003(H9N2)); assay: protein microarray, purified IgG, trimeric HA
[9] = target: recombinant homotrimeric HA A/South Carolina/1/18 H1N1 (Influenza A virus A/South Carolina/1/18 (H1N1)); assay: protein microarray, purified IgG, trimeric HA
[10] = target: recombinant homotrimeric HA A/Indonesia/5/05 H5N1 (Influenza A virus A/Indonesia/5/2005(H5N1)); assay: protein microarray, purified IgG, trimeric HA
[11] = target: recombinant homotrimeric HA A/Egypt/3300-NAMRU3/08 H5N1 (Influenza A virus A/Egypt/3300-NAMRU3/2008(H5N1)); assay: protein microarray, purified IgG, trimeric HA
[12] = target: recombinant homotrimeric HA A/Netherlands/219/03 H7N7 (Influenza A virus A/Netherlands/219/03(H7N7)); assay: protein microarray, purified IgG, trimeric HA
[13] = target: recombinant homotrimeric HA A/Wisconsin/67/05 H3N2 (Influenza A virus A/Wisconsin/67/2005(H3N2)); assay: protein microarray, purified IgG, trimeric HA
[14] = target: recombinant homotrimeric HA A/California/4/09 H1N1 (Influenza A virus A/California/04/2009(H1N1)); assay: protein microarray, purified IgG, trimeric HA
[15] = target: recombinant homotrimeric HA A/duck/Yangzhou/02/05 H8N4 (Influenza A virus A/duck/Yangzhou/02/2005(H8N4)); assay: protein microarray, purified IgG, trimeric HA
[16] = target: recombinant homotrimeric HA A/chicken/Vietnam/NCVD-016/08 H5N1 (Influenza A virus A/chicken/Vietnam/NCVD-016/2008(H5N1)); assay: protein microarray, purified IgG, trimeric HA
[17] = target: recombinant homotrimeric HA A/Japan/305/57 H2N2 (Influenza A virus A/Japan/305/1957(H2N2)); assay: protein microarray, purified IgG, trimeric HA
[18] = target: T1, recombinant soluble homotrimeric HA of …; assay: HA microarray, BCC supernatant
[19] = target: recombinant soluble homotrimeric HA of A/Netherlands/219/03 (H7N7) (Influenza A virus A/Netherlands/219/03(H7N7)); assay: HA microarray, BCC supernatant
[20] = target: T2, recombinant soluble homotrimeric HA of …; assay: HA microarray, BCC supernatant
[21] = target: T3, recombinant soluble homotrimeric HA of …; assay: HA microarray, BCC supernatant
[22] = target: T4, recombinant soluble homotrimeric HA of …; assay: HA microarray, BCC supernatant
[23] = target: recombinant homotrimeric HA A/northern shoveler/California/HKWF115/07 H6N4 (Influenza A virus A/northern shoveler/California/HKWF115/2007(H6N1)); assay: protein microarray, purified IgG, trimeric HA
[24] = target: recombinant homotrimeric HA A/Hong Kong/1073/99 H9N2 (Influenza A virus A/Hong Kong/1073/99 (H9N2)); assay: protein microarray, purified IgG, trimeric HA
[25] = target: recombinant soluble homotrimeric HA, A/northern shoveler/California/HKWF115/07 H6N4 (Influenza A virus A/northern shoveler/California/HKWF115/2007(H6N1)); assay: microarray, transfection SN IgG, trimeric HA
[26] = target: recombinant soluble homotrimeric HA, A/Solomon Islands/3/06 H1N1 (Influenza A virus A/Solomon Islands/3/2006(H1N1)); assay: microarray, transfection SN IgG, trimeric HA
[27] = target: recombinant soluble homotrimeric HA, A/Egypt/3300-NAMRU3/08 H5N1 (Influenza A virus A/Egypt/3300-NAMRU3/2008(H5N1)); assay: microarray, transfection SN IgG, trimeric HA
[28] = target: recombinant soluble homotrimeric HA, A/South Carolina/1/18 H1N1 (Influenza A virus A/South Carolina/1/18 (H1N1)); assay: microarray, transfection SN IgG, trimeric HA
[29] = target: recombinant soluble homotrimeric HA, A/California/4/09 H1N1 (Influenza A virus A/California/04/2009(H1N1)); assay: microarray, transfection SN IgG, trimeric HA
[30] = target: recombinant soluble homotrimeric HA, A/chicken/Vietnam/NCVD-016/08 H5N1 (Influenza A virus A/chicken/Vietnam/NCVD-016/2008(H5N1)); assay: microarray, transfection SN IgG, trimeric HA
[31] = target: recombinant soluble homotrimeric HA, A/Japan/305/57 H2N2 (Influenza A virus A/Japan/305/1957(H2N2)); assay: microarray, transfection SN IgG, trimeric HA
[32] = target: recombinant soluble homotrimeric HA, A/swine/Ontario/01911-2/99 H4N6 (Influenza A virus A/Swine/Ontario/01911-2/99 (H4N6)); assay: microarray, transfection SN IgG, trimeric HA
[33] = target: recombinant soluble homotrimeric HA, A/duck/Yangzhou/02/05 H8N4 (Influenza A virus A/duck/Yangzhou/02/2005(H8N4)); assay: microarray, transfection SN IgG, trimeric HA
[34] = target: recombinant soluble homotrimeric HA, A/Wisconsin/67/05 H3N2 (Influenza A virus A/Wisconsin/67/2005(H3N2)); assay: microarray, transfection SN IgG, trimeric HA
[35] = target: recombinant soluble homotrimeric HA, A/Netherlands/219/03 H7N7 (Influenza A virus A/Netherlands/219/03(H7N7)); assay: microarray, transfection SN IgG, trimeric HA
[36] = target: recombinant soluble homotrimeric HA of A/Solomon Islands/3/06 (H1N1) (Influenza A virus A/Solomon Islands/3/2006(H1N1)); assay: HA microarray, BCC supernatant
[37] = target: recombinant soluble homotrimeric HA of A/northern shoveler/California/HKWF115/07 (H6) (Influenza A virus A/northern shoveler/California/HKWF115/2007(H6N1)); assay: HA microarray, BCC supernatant
[38] = target: recombinant soluble homotrimeric HA of A/California/4/09 (H1N1) (Influenza A virus A/California/04/2009(H1N1)); assay: HA microarray, BCC supernatant

B1: TCN-545 (5082_I15) (antibody, V domains shown)
VH: QVQLQQWGAGLLKPSETLSLSCAVFGGSFSDYYWTWIRQPPGKGLEWIGEIKHSGRTNYNPSLESRVTISVDTSKNQFSLKLSSVTAADTAIYYCARGTDPDTEGYCRSGSCSAFDFWGQGTLVTVSS
VL: EIVLTQSPGTLSLSPGERATLSCRASHFVNYRSLAWYQQTPGQVPRLLIYGASTRATGIPDRFSGSGSGTDFTLTISRLEPEDFAVYFCQQYGGSPRYTFGQGTRLEIK
Binder B1 has a Trimeric HA Binding: RLU [1] of 42900 RLU, a Trimeric HA Binding: RLU [2] of 2940 RLU and a Trimeric HA Binding: RLU [3] of 1360 RLU. The Trimeric HA Binding: RLU [4] was 3230 RLU, the Trimeric HA Binding: RLU [5] was 13200 RLU and the Trimeric HA Binding: RLU [6] was 900 RLU. The Trimeric HA Binding: RLU [7] was 32000 RLU, the Trimeric HA Binding: RLU [8] was 262 RLU and the Trimeric HA Binding: RLU [9] was 289 RLU. For the same binder, the Trimeric HA Binding: RLU [10] was 193 RLU, the Trimeric HA Binding: RLU [11] was 1410 RLU and the Trimeric HA Binding: RLU [12] was 1490 RLU. It also gave a Trimeric HA Binding: RLU [13] of 23700 RLU, a Trimeric HA Binding: RLU [14] of 672 RLU and a Trimeric HA Binding: RLU [15] of 396 RLU. The Trimeric HA Binding: RLU [16] was 679 RLU, the Trimeric HA Binding: RLU [17] was 1400 RLU and the Trimeric HA Binding: RLU [18] was 235 RLU. It also gave a Trimeric HA Binding: RLU [19] of 1180 RLU, a Trimeric HA Binding: RLU [20] of 157 RLU and a Trimeric HA Binding: RLU [21] of 392 RLU. The Trimeric HA Binding: RLU [22] was 575 RLU.

B2: TCN-549 (5092_P04) (antibody, V domains shown)
VH: QVQLVQSGAEVKKPGASVKVSCKASGYTFTGYYMHWVRQAPGQGLEWMGWINPNSGDTNYAQKFQGRVTMTRDTSITTAYMELSSLRSDDTAVYYCARDSPYSSSWSFFDYWGQGPLVTVSS
VL: not shown
In the case of B2, the Trimeric HA Binding: RLU [9] is reported as 72 RLU, the Trimeric HA Binding: RLU [11] is reported as 6920 RLU and the Trimeric HA Binding: RLU [12] is reported as 193 RLU. The Trimeric HA Binding: RLU [13] was 27200 RLU, the Trimeric HA Binding: RLU [14] was 196 RLU and the Trimeric HA Binding: RLU [15] was 166 RLU. The Trimeric HA Binding: RLU [16] was 177 RLU, the Trimeric HA Binding: RLU [23] was 112 RLU and the Trimeric HA Binding: RLU [24] was 450 RLU. For the same binder, the Trimeric HA Binding: RLU [17] was 413 RLU, the Trimeric HA Binding: RLU [25] was 996 RLU and the Trimeric HA Binding: RLU [26] was 640 RLU. For the same binder, the Trimeric HA Binding: RLU [27] was 18600 RLU, the Trimeric HA Binding: RLU [28] was 2340 RLU and the Trimeric HA Binding: RLU [29] was 622 RLU. For the same binder, the Trimeric HA Binding: RLU [30] was 1600 RLU, the Trimeric HA Binding: RLU [31] was 1080 RLU and the Trimeric HA Binding: RLU [32] was 1880 RLU. The Trimeric HA Binding: RLU [33] was 9450 RLU, the Trimeric HA Binding: RLU [34] was 51600 RLU and the Trimeric HA Binding: RLU [35] was 8480 RLU. For the same binder, the Trimeric HA Binding: RLU [19] was 1130 RLU, the Trimeric HA Binding: RLU [20] was 387 RLU and the Trimeric HA Binding: RLU [21] was 498 RLU. For the same binder, the Trimeric HA Binding: RLU [36] was 284 RLU, the Trimeric HA Binding: RLU [37] was 1100 RLU and the Trimeric HA Binding: RLU [38] was 338 RLU. For the same binder, the Trimeric HA Binding: RLU [22] was 30900 RLU.
